T1: hFcgRIIaH (human, UniProt P12318 34-217)
T1 construct: extracellular domain; also called human FcγRIIa type H (H131)
T1 sequence (looked up): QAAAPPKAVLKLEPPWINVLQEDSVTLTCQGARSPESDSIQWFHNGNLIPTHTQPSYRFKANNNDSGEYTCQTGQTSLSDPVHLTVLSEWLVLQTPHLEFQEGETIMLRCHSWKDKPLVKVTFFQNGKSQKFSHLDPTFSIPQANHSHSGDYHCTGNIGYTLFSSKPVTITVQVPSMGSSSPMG

T2: hFcgRIIaR (human, UniProt P12318 34-217)
T2 construct: extracellular domain; also called human FcγRIIa type R (R131)
T2 sequence (looked up): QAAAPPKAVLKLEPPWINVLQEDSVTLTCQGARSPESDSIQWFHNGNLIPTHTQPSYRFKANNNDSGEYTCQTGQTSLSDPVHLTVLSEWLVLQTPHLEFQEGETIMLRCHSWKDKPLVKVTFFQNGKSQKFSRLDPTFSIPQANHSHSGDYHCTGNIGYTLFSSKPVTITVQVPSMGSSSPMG

T3: hFcgRIIb (human, UniProt P31994 43-217)
T3 construct: extracellular domain; also called human FcγRIIb
T3 sequence (looked up): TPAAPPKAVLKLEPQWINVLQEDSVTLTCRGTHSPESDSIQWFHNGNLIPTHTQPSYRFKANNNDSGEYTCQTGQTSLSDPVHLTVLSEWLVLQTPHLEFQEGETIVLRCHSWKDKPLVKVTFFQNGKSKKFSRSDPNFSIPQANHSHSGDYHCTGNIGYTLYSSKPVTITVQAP


Assays:
[1] = target: T4, hFcgRIa (human, UniProt P12314 16-292); experiment: SPR 25C
T4 construct: extracellular domain; also called human FcγRIa; FcγRI
T4 sequence (P12314 16-292): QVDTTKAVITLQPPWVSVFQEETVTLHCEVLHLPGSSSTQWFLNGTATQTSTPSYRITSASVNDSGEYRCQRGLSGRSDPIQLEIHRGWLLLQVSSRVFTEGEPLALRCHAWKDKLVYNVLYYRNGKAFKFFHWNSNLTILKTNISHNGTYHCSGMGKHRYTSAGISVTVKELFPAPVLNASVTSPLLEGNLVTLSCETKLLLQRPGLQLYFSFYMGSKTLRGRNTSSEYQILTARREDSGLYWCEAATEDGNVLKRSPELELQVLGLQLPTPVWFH
Method: (§1) Biacore T200 (GE Healthcare) was used to evaluate the binding activity to the respective human Fcγ receptor (hereafter referred to as FcγR). Measurement was performed at 25° C. using 50 mM phosphate, 150 mM NaCl, 0.05 w/v %-P20, pH 7.4 as buffer. About 1000 RU of antibody was captured using a sensor chip immobilized with CaptureSelect™ Human Fab-lambda Kinetics Biotin Conjugate (Thermo Fisher Scientific) as a molecule for ligand capturing. Human FcγR was diluted to 8 nM for FcγRIa and 1000 nM for other FcγR in the measurement buffer, and it was interacted to the captured antibody. The binding activity of each antibody to FcγR was assessed by calculating the binding amount of FcγR (RU) per unit amount of antibody using Biacore T200 Evaluation Software 2.0.

[2] = target: T1, hFcgRIIaH; experiment: SPR 25C
Method: as §1

[3] = target: T2, hFcgRIIaR; experiment: SPR 25C
Method: as §1

[4] = target: T3, hFcgRIIb; experiment: SPR 25C
Method: as §1

[5] = target: T5, hFcgRIIIaF (human, UniProt P08637 17-208); experiment: SPR 25C
T5 construct: extracellular domain; also called human FcγRIIIa allotype F158
T5 sequence (P08637 17-208): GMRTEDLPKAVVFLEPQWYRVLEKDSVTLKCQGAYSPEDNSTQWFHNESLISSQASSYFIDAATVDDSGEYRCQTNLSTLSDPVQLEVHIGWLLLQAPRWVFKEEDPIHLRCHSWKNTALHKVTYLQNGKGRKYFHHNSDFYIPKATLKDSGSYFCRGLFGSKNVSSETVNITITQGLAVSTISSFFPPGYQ
Method: as §1

[6] = target: T6, hFcgRIIIaV (human, UniProt P08637 17-208); experiment: SPR 25C
T6 construct: extracellular domain; also called human FcγRIIIa allotype V158
T6 sequence (P08637 17-208 F176V): as the sequence (P08637 17-208) above, with F160V counted along it
Method: as §1

[7] = target: human FcRn (human, UniProt P55899 24-290; P61769 21-119, limits assumed); experiment: SPR 25C pH 6.0, steady state;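 note: antibody captured on chip via anti-human Fab-lambda ligand, human FcRn injected as analyte in 50 mM phosphate buffer with 150 mM NaCl and P20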
Method: Biacore T200 (GE Healthcare) was used to assess the binding activity to human FcRn. Measurement was performed at 25° C. using 50 mM phosphate, 150 mM NaCl, 0.05 w/v %-P20, pH 6.0 as buffer. […] About 400 RU of antibody was captured using a sensor chip immobilized with CaptureSelect™ Human Fab-lambda Kinetics Biotin Conjugate (Thermo Fisher Scientific) as a molecule for ligand capturing, followed by the binding of human FcRn diluted in measuring buffer. The activity of the respective antibodies to bind FcRn was assessed by calculating KD (mol/L) by the steady-state model using Biacore T200 Evaluation Software 2.0.

[8] = target: T4, hFcgRIa; experiment: SPR 25C; relative to A375-G1T3/B167-Lamlib;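 note: SPR with antibody captured on an anti-human Fab-lambda chip, human FcγR analyte at 8 nM for FcγRIa or 1000 nM for the others, pH 7.4, FcγR RU per captured antibody unit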
Method: as §1

[9] = target: T1, hFcgRIIaH; experiment: SPR 25C; relative to A375-G1T3/B167-Lamlib;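 note: SPR with antibody captured on an anti-human Fab-lambda chip, human FcγR analyte at 8 nM for FcγRIa or 1000 nM for the others, pH 7.4, FcγR RU per captured antibody unit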
Method: as §1

[10] = target: T2, hFcgRIIaR; experiment: SPR 25C; relative to A375-G1T3/B167-Lamlib;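 note: SPR with antibody captured on an anti-human Fab-lambda chip, human FcγR analyte at 8 nM for FcγRIa or 1000 nM for the others, pH 7.4, FcγR RU per captured antibody unit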
Method: as §1

[11] = target: T3, hFcgRIIb; experiment: SPR 25C; relative to A375-G1T3/B167-Lamlib;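 note: SPR with antibody captured on an anti-human Fab-lambda chip, human FcγR analyte at 8 nM for FcγRIa or 1000 nM for the others, pH 7.4, FcγR RU per captured antibody unit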
Method: as §1

[12] = target: T5, hFcgRIIIaF; experiment: SPR 25C; relative to A375-G1T3/B167-Lamlib
Method: as §1

[13] = target: T6, hFcgRIIIaV; experiment: SPR 25C; relative to A375-G1T3/B167-Lamlib
Method: as §1
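Throughout, for binding per 1RU of antibody: biacore SPR with antibody captured on an anti-human Fab lambda chip, human FcγR injected at 1000 nM (FcγRIa at 8 nM) in pH 7.4 phosphate buffer.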

| binding per 1RU of antibody [1] | binding per 1RU of antibody [2] | binding per 1RU of antibody [3] | binding per 1RU of antibody [4] | binding per 1RU of antibody [5] | binding per 1RU of antibody [6] | Kd [7] | relative binding amount [8] | relative binding amount [9] | relative binding amount [10] | relative binding amount [11] | relative binding amount [12] | relative binding amount [13] | Binder |
| --- | --- | --- | --- | --- | --- | --- | --- | --- | --- | --- | --- | --- | --- |
| 0.0405 RU | 0.0525 RU | 0.0367 RU | 0.0412 RU | 0.0013 RU | 0.0025 RU | 928 nM | 0.5 | 0.93 | 0.79 | 3.76 | 0.06 | 0.04 | A375-SCF057a/B167-Lamlib (antibody, human IgG1, lambda) heavy: EVQLVESGGGLVKPGGSLRLSCAASGFTFSTFTMNWVRQAPGKGLEWVSSISSKSTYIEYADSFKVRFTISRDNAKNSLYLQMNSLRAEDTAVYYCARYGAKNFLNWVFDYWGQGTLVTVSSASTKGPSVFPLAPSSKSTSGGTAALGCLVKDYFPEPVTVSWNSGALTSGVHTFPAVLQSSGLYSLSSVVTVPSSSLGTQTYICNVNHKPSNTKVDKRVEPKSCDKTHTCPPCPAPELLNGPSVFLFPPKPKDTLMISRTPEVTCVVVDVSDEDPEVKFNWYVDGVEVHNAKTKPREEQYNSTYRVVSVLTVLHRDWLNGKEYKCKVSNKALPKPIEKTISKAKGQRREPQVYTLPPSREEMTKNQVSLTCLVKGFYPSDIAVEWESNGQPENNYKTTPPVLDSDGSFFLYSKLTVDKSRWQQGNVFSCSVMHEALHNHYTQKSLSLSP light: QSALTQPPSASGSPGQTVTISCTGTRYDVGYYEYVSWYQQHPGKAPKLMIYETSKRLSGVPDRFSGSKSGNTASLTVSGLQAEDEADYYCSSYRYEHQVSFGGGTKLTVLGQPKAAPSVTLFPPSSEELQANKATLVCLISDFYPGAVTVAWKADSSPVKAGVETTTPSKQSNNKYAASSYLSLTPEQWKSHRSYSCQVTHEGSTVEKTVAPTECS |
| 0.038 RU | 0.0502 RU | 0.0319 RU | 0.0358 RU | 0.001 RU | 0.0021 RU | 1030 nM | 0.47 | 0.88 | 0.69 | 3.27 | 0.05 | 0.03 | A375-SCF059a/B167-Lamlib (antibody, human IgG1, lambda, copies: 2 + 2) heavy: EVQLVESGGGLVKPGGSLRLSCAASGFTFSTFTMNWVRQAPGKGLEWVSSISSKSTYIEYADSFKVRFTISRDNAKNSLYLQMNSLRAEDTAVYYCARYGAKNFLNWVFDYWGQGTLVTVSSASTKGPSVFPLAPSSKSTSGGTAALGCLVKDYFPEPVTVSWNSGALTSGVHTFPAVLQSSGLYSLSSVVTVPSSSLGTQTYICNVNHKPSNTKVDKRVEPKSCDKTHTCPPCPAPELLNGPSVFLFPPKPKDTLMISRTPEVTCVVVDVSDEDPEVKFNWYVDGVEVHNAKTKPREEQYNSTYRVVSVLTVLHRDWLNGKEYKCKVSNKALPKPIEKTISKAKGQPREPQVYTLPPSREEMTKNQVSLTCLVKGFYPSDIAVEWESNGQPENNYKTTPPVLDSDGSFFLYSKLTVKKSRWQQGNVFSCSVMHEALHNHYTQKSLSLSP light: QSALTQPPSASGSPGQTVTISCTGTRYDVGYYEYVSWYQQHPGKAPKLMIYETSKRLSGVPDRFSGSKSGNTASLTVSGLQAEDEADYYCSSYRYEHQVSFGGGTKLTVLGQPKAAPSVTLFPPSSEELQANKATLVCLISDFYPGAVTVAWKADSSPVKAGVETTTPSKQSNNKYAASSYLSLTPEQWKSHRSYSCQVTHEGSTVEKTVAPTECS |
| 0.0021 RU | 0.0365 RU | 0.0364 RU | 0.0345 RU | -0.0003 RU | 0.0005 RU | 909 nM | 0.03 | 0.64 | 0.79 | 3.15 | -0.02 | 0.01 | A375-SCF057aPh/B167-Lamlib (antibody, human IgG1, lambda) heavy: EVQLVESGGGLVKPGGSLRLSCAASGFTFSTFTMNWVRQAPGKGLEWVSSISSKSTYIEYADSFKVRFTISRDNAKNSLYLQMNSLRAEDTAVYYCARYGAKNFLNWVFDYWGQGTLVTVSSASTKGPSVFPLAPSSKSTSGGTAALGCLVKDYFPEPVTVSWNSGALTSGVHTFPAVLQSSGLYSLSSVVTVPSSSLGTQTYICNVNHKPSNTKVDKRVEPKSCDKTHTCPPCPAPELWNGPSVFLFPPKPKDTLMISRTPEVTCVVVDVSDEDPEVKFNWYVDGVEVHNAKTKPREEQYNSTYRVVSVLTVLHRDWLNGKEYKCKVSNKALPKPIEKTISKAKGQRREPQVYTLPPSREEMTKNQVSLTCLVKGFYPSDIAVEWESNGQPENNYKTTPPVLDSDGSFFLYSKLTVDKSRWQQGNVFSCSVMHEALHNHYTQKSLSLSP light: QSALTQPPSASGSPGQTVTISCTGTRYDVGYYEYVSWYQQHPGKAPKLMIYETSKRLSGVPDRFSGSKSGNTASLTVSGLQAEDEADYYCSSYRYEHQVSFGGGTKLTVLGQPKAAPSVTLFPPSSEELQANKATLVCLISDFYPGAVTVAWKADSSPVKAGVETTTPSKQSNNKYAASSYLSLTPEQWKSHRSYSCQVTHEGSTVEKTVAPTECS |
| 0.0089 RU | 0.0332 RU | 0.0319 RU | 0.0291 RU | 0.0003 RU | 0.0028 RU | 1050 nM | 0.11 | 0.59 | 0.69 | 2.66 | 0.01 | 0.04 | A375-SCF059aPh/B167-Lamlib (antibody, human IgG1, lambda, copies: 2 + 2) heavy: EVQLVESGGGLVKPGGSLRLSCAASGFTFSTFTMNWVRQAPGKGLEWVSSISSKSTYIEYADSFKVRFTISRDNAKNSLYLQMNSLRAEDTAVYYCARYGAKNFLNWVFDYWGQGTLVTVSSASTKGPSVFPLAPSSKSTSGGTAALGCLVKDYFPEPVTVSWNSGALTSGVHTFPAVLQSSGLYSLSSVVTVPSSSLGTQTYICNVNHKPSNTKVDKRVEPKSCDKTHTCPPCPAPELWNGPSVFLFPPKPKDTLMISRTPEVTCVVVDVSDEDPEVKFNWYVDGVEVHNAKTKPREEQYNSTYRVVSVLTVLHRDWLNGKEYKCKVSNKALPKPIEKTISKAKGQPREPQVYTLPPSREEMTKNQVSLTCLVKGFYPSDIAVEWESNGQPENNYKTTPPVLDSDGSFFLYSKLTVKKSRWQQGNVFSCSVMHEALHNHYTQKSLSLSP light: QSALTQPPSASGSPGQTVTISCTGTRYDVGYYEYVSWYQQHPGKAPKLMIYETSKRLSGVPDRFSGSKSGNTASLTVSGLQAEDEADYYCSSYRYEHQVSFGGGTKLTVLGQPKAAPSVTLFPPSSEELQANKATLVCLISDFYPGAVTVAWKADSSPVKAGVETTTPSKQSNNKYAASSYLSLTPEQWKSHRSYSCQVTHEGSTVEKTVAPTECS |
| 0.0021 RU | 0.0463 RU | 0.0459 RU | 0.0472 RU | 0.0011 RU | 0.0008 RU | 1010 nM | 0.03 | 0.82 | 0.99 | 4.31 | 0.05 | 0.01 | A375-SCF060a/B167-Lamlib (antibody, human IgG1, lambda, copies: 2 + 2) heavy: EVQLVESGGGLVKPGGSLRLSCAASGFTFSTFTMNWVRQAPGKGLEWVSSISSKSTYIEYADSFKVRFTISRDNAKNSLYLQMNSLRAEDTAVYYCARYGAKNFLNWVFDYWGQGTLVTVSSASTKGPSVFPLAPSSKSTSGGTAALGCLVKDYFPEPVTVSWNSGALTSGVHTFPAVLQSSGLYSLSSVVTVPSSSLGTQTYICNVNHKPSNTKVDKRVEPKSCDKTHTCPPCPAPELWNGPSVFLFPPKPKDTLMISRTPEVTCVVVDVSDEDPEVKFNWYVDGVEVHNAKTKPREELYNSTYRVVSVLTVLHRDWLNGKEYKCKVSNTALPKPIEKTISKAKGQPREPQVYTLPPSREEMTKNQVSLTCLVKGFYPSDIAVEWESNGQPENNYKTTPPVLDSDGSFFLYSKLTVDKSRWQQGNVFSCSVMHEALHNHYTQKSLSLSP light: QSALTQPPSASGSPGQTVTISCTGTRYDVGYYEYVSWYQQHPGKAPKLMIYETSKRLSGVPDRFSGSKSGNTASLTVSGLQAEDEADYYCSSYRYEHQVSFGGGTKLTVLGQPKAAPSVTLFPPSSEELQANKATLVCLISDFYPGAVTVAWKADSSPVKAGVETTTPSKQSNNKYAASSYLSLTPEQWKSHRSYSCQVTHEGSTVEKTVAPTECS |

Reference: US20210324099A1 (Chugai, published 2021)
